± gives the uncertainty stated by the source.
B1: Far upstream element-binding protein 3, residues 75 to 150; numbered along this chain, Q96I24 (parent)
chain: RTVITEEFKVPDKMVGFIIGRGGEQISRIQAESGCKIQIASESSGIPERPCVLTGTPESIEQAKRLLGQIVDRCRN

Variants of: B1
Test: abundance fitness (aPCA) (normalised: wild type 0, dead -1); higher = more abundant; growth selection in yeast, the domain comes from the species named
Settings: Homo sapiens

Row | Variant | abundance fitness
1 | RTVITEEFKVPDVMVGFIIGRGGEQISRIQAESGCKIQIASESSGIPERPCVLTGTPESIEQAKRLLGQIVDRCRN [K13V] | -0.263 ± 0.03
2 | RTVITEEFKVPDFMVGFIIGRGGEQISRIQAESGCKIQIASESSGIPERPCVLTGTPESIEQAKRLLGQIVDRCRN [K13F] | -0.243 ± 0.061
3 | RTVITEEFKVPDKMVGFIIGRGGEQISRIQAESGCKIQIASESSGIPERPCVLTGTPESIEQAKRLLGQIVDRCAN [R75A] | 0.064 ± 0.032
4 | RTVITEEFKVPDKMVGFIIGRGGEQISRIQAESGCKIQIASESSGIPERPCVLTGTPESIEQAKRLLGQIVDRCDN [R75D] | -0.082 ± 0.058
5 | RTVITEEFKVPDKMVGFIIGRGGEQISRIQAESGCKIQIASESSGIPERPCVLTGTPESIEQAKRLLGQIVDRCKN [R75K] | 0.043 ± 0.061
6 | RTVITEEFKVPDKMVGFIIGRGGEQISRIQAESGCKIQIASESSGIPERPCVLTGTPESIEQAFRLLGQIVDRCRN [K64F] | -0.801 ± 0.079
7 | RTVITEEFKVPDKMVGFIIGRGGGQISRIQAESGCKIQIASESSGIPERPCVLTGTPESIEQAKRLLGQIVDRCRN [E24G] | -0.045 ± 0.028
8 | RTVITEEFKVPDKMVGFIIGRGGVQISRIQAESGCKIQIASESSGIPERPCVLTGTPESIEQAKRLLGQIVDRCRN [E24V] | -0.03 ± 0.03
9 | RTVITEEFKVPDKMVGFIIGRGGEQISRIQAESGCKIQIASESSGIPEGPCVLTGTPESIEQAKRLLGQIVDRCRN [R49G] | -0.129 ± 0.026
10 | RTVITEEFKVPDKMVGFIIGRGGEQISRIQAESGCKIQIASESSGIPERPCVLTGTPESIEQAKRWLGQIVDRCRN [L66W] | -0.17 ± 0.033
11 | RTVITEEFKVPDKMVGFIIGFGGEQISRIQAESGCKIQIASESSGIPERPCVLTGTPESIEQAKRLLGQIVDRCRN [R21F] | -0.147 ± 0.055
12 | RTVITEEFKVPDKMVGFIIGRGGEQISRIQAESGCKIQIASESSGIPERPCVLTGTPESIEQNKRLLGQIVDRCRN [A63N] | -1.25 ± 0.2
13 | RTVITEEFKVPDKMVGFIIGRGGEQISSIQAESGCKIQIASESSGIPERPCVLTGTPESIEQAKRLLGQIVDRCRN [R28S] | -0.085 ± 0.035
14 | RTVITEEFKVPDKMVGFIIGRGGEQISVIQAESGCKIQIASESSGIPERPCVLTGTPESIEQAKRLLGQIVDRCRN [R28V] | -0.202 ± 0.028
15 | RTVITEEFKVPDKMVGFIIGRGGEQISRIQAESGCKIQIASESSGIPERPCVLTGTPESIEQAKILLGQIVDRCRN [R65I] | 0.057 ± 0.067
16 | RTVITEEFKVPDKMVGFIIGRGGEQISRIQACSGCKIQIASESSGIPERPCVLTGTPESIEQAKRLLGQIVDRCRN [E32C] | -0.128 ± 0.042
17 | RTVITEEFKVPDKMVGFISGRGGEQISRIQAESGCKIQIASESSGIPERPCVLTGTPESIEQAKRLLGQIVDRCRN [I19S] | -0.045 ± 0.035
18 | RTVITEEFKVPDKMVGFIIGRGGEQISRIQAESGCKIQIASESSGIPERPCVLTGTVESIEQAKRLLGQIVDRCRN [P57V] | -0.06 ± 0.037

Row | Variant | abundance fitness
19 | RTVITEEFKVPDKMVGFIIGRGGENISRIQAESGCKIQIASESSGIPERPCVLTGTPESIEQAKRLLGQIVDRCRN [Q25N] | -0.041 ± 0.072
20 | RTVITEEFKVPDKIVGFIIGRGGEQISRIQAESGCKIQIASESSGIPERPCVLTGTPESIEQAKRLLGQIVDRCRN [M14I] | -0.33 ± 0.066
21 | RTVITEEFKVPDKFVGFIIGRGGEQISRIQAESGCKIQIASESSGIPERPCVLTGTPESIEQAKRLLGQIVDRCRN [M14F] | -0.127 ± 0.08
22 | RTVITEEFKVPDKHVGFIIGRGGEQISRIQAESGCKIQIASESSGIPERPCVLTGTPESIEQAKRLLGQIVDRCRN [M14H] | -0.089 ± 0.055
23 | RTVITEEFKVPDKMVGFIIGRGGEQISRIQAESGCKMQIASESSGIPERPCVLTGTPESIEQAKRLLGQIVDRCRN [I37M] | -0.232 ± 0.039
24 | RTVITEEFKVPDKMVGFIIGRGGEQISRIQAESGCKIQIMSESSGIPERPCVLTGTPESIEQAKRLLGQIVDRCRN [A40M] | -0.063 ± 0.04
25 | RTVITEEFKVPDKMVGFIIGRGGEQISRIQAESGCKIQIAIESSGIPERPCVLTGTPESIEQAKRLLGQIVDRCRN [S41I] | -0.092 ± 0.07
26 | RTVITEEFKVPDKMVGFIIGRGGEQISRIQAESGCKIQIASESSGIPERPCELTGTPESIEQAKRLLGQIVDRCRN [V52E] | -0.073 ± 0.037
27 | RTVITEEFKVPQKMVGFIIGRGGEQISRIQAESGCKIQIASESSGIPERPCVLTGTPESIEQAKRLLGQIVDRCRN [D12Q] | -0.155 ± 0.043
28 | RTVITEEFAVPDKMVGFIIGRGGEQISRIQAESGCKIQIASESSGIPERPCVLTGTPESIEQAKRLLGQIVDRCRN [K9A] | -0.006 ± 0.031
29 | RTVITEEFKVPDKMVGFIIGRGGEQISRIQAESGCKIQIASESSGIPERPCVLTGTPENIEQAKRLLGQIVDRCRN [S59N] | -0.013 ± 0.082
30 | RTVITYEFKVPDKMVGFIIGRGGEQISRIQAESGCKIQIASESSGIPERPCVLTGTPESIEQAKRLLGQIVDRCRN [E6Y] | -0.145 ± 0.054
31 | RTVITAEFKVPDKMVGFIIGRGGEQISRIQAESGCKIQIASESSGIPERPCVLTGTPESIEQAKRLLGQIVDRCRN [E6A] | -0.067 ± 0.03
32 | RTVITNEFKVPDKMVGFIIGRGGEQISRIQAESGCKIQIASESSGIPERPCVLTGTPESIEQAKRLLGQIVDRCRN [E6N] | -0.242 ± 0.067
33 | RTVITKEFKVPDKMVGFIIGRGGEQISRIQAESGCKIQIASESSGIPERPCVLTGTPESIEQAKRLLGQIVDRCRN [E6K] | -0.018 ± 0.043
34 | RTVITEEFKVFDKMVGFIIGRGGEQISRIQAESGCKIQIASESSGIPERPCVLTGTPESIEQAKRLLGQIVDRCRN [P11F] | -0.422 ± 0.076
35 | RTVITEEFKVPDKMVGFIIGRPGEQISRIQAESGCKIQIASESSGIPERPCVLTGTPESIEQAKRLLGQIVDRCRN [G22P] | -0.276 ± 0.043
36 | RTVITEEFKVPDKMVGFIIGRNGEQISRIQAESGCKIQIASESSGIPERPCVLTGTPESIEQAKRLLGQIVDRCRN [G22N] | 0.006 ± 0.062

Source: the Human Domainome abundance scans (Beltran et al. 2025)
